Key:
FGFR1 and ITGB1 = target: T1, FGFR1 and ITGB1 (Homo sapiens, UniProt P11362); experiment: p-FGFR1 and active ITGB1 in hNPCs on co-assembled PA coatings (WB); assay type: cell-based
T1 construct: endogenous in cells; host or cells: hNPCs differentiated from human embryonic stem cells HUES 64, seeded on co-assembled PA coatings
Method: (§1) For IKVAV PA treatments, hNPCs were cultured on ornithine coatings (German Glass, Chemglass Life Science) in 6 well and 24 well plates at a density of 500,000 cells/well and 80,000 cells/well respectively. hNPCs were treated with […] of IKVAV PAs ([PA]=6 mM, [KCl]=3 mM, [NaCl]=150 mM) or recombinant laminin protein (10 mg/mL) in solution. IKVAV PA2 and IKVAV PA5 were also mixed with 5 mM CaCl2) at a ratio PA:CaCl2) 6:1 to treat hNPCs. For 2D experiments, hNPCs were cultured on the different IKVAV PAs or laminin coatings in 6 well and 24 well plates at densities mentioned above. For co-assembled experiments, hNPCs were cultured on the different co-assembled PA coatings in 6 well and 24 well plates at a density of 400,000 cells/well and 50,000 cells/well respectively.
(§2) hNPCs were fed 4 times a week with DMEM: F12+N2^+B27 medium with hyclone penicillin-streptomycin and ascorbic acid. After 24 h, 72 h 1- or 2-weeks in vitro, cell lysates were harvested or fixed for WB or ICC, respectively. Three replicates per condition and at least three independent experiments were carried out for all conditions investigated.
(§3) RIPA buffer (Thermofisher) with a cocktail of Halt Protease and Phosphatase Inhibitors (Thermofisher) was used to extract protein from in vitro and in vivo samples. For in vivo studies, spinal cord tissue was then sonicated using a horn sonicator (Branson) to break up the tissue. […]

FGFR1 = target: T2, FGFR1 (Homo sapiens, UniProt P11362); experiment: FGF-2 intracellular signaling pathway in HUVECs (WB p-FGFR1, p-ERK1/2); assay type: cell-based
T2 construct: host or cells: HUVECs (pooled donor)
T2 sequence (P11362 22-822): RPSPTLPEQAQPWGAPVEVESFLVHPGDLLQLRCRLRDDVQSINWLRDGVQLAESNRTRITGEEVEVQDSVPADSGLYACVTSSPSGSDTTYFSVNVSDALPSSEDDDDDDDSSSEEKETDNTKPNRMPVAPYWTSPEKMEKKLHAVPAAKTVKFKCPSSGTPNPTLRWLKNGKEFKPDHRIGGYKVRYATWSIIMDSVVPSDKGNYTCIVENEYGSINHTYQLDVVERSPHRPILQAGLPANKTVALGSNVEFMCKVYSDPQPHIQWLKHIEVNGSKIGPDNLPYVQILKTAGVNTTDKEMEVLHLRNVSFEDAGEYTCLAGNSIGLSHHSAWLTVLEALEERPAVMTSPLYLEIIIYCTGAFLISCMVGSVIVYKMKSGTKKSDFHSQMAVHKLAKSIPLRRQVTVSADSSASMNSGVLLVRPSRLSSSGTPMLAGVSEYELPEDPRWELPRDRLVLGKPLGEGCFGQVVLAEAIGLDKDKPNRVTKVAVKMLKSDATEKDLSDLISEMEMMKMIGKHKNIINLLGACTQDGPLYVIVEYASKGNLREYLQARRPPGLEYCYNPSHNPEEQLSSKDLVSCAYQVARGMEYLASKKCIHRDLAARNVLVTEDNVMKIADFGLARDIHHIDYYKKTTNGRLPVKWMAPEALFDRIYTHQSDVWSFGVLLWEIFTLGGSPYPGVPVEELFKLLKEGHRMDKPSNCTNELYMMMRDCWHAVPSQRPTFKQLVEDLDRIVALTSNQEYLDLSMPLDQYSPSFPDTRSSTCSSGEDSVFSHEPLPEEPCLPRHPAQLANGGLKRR
Method: (§4) Human umbilical vein cord (HUVECs) (pooled donor, LONZA, Allendale, New Jersey) were grown to 70-80% confluence for each experiment (P2-P4) in a T-75 cell culture flask using complete media (Endo GRO-VEGF Complete Culture Media Kit, Millipore) supplemented with 1% penicillin-streptomycin. Media was changed every 3 days.
Treatments were prepared by dissolving the co-assembled PAs in media without serum. The total concentration of FGF2 PAs per treatment was 0.5 μM. FGF-2 native protein (Peprotech) was resuspended and used at 0.25 nM. For western blot experiments, HUVEC were cultured in 12 well plates at a density of approximately 150,000 cells/well for 2 days in vitro before being treated. Treatments were added for 2 h-2 days in vitro before cell lysates were harvested or cells were fixed. For PA coatings, PAs were painted on the coverslips (German Glass, Chemglass Life Science) or tissue culture plates as described in the Co-assembled PA preparation section. Three replicates per condition and three independent experiments were carried out for all conditions investigated.
as §3

hNPCs = experiment: hNPC attachment, proliferation and phenotype on co-assembled PA coatings (EdU, SOX-2, PAX6); assay type: cell-based, human
Excerpt: Neural progenitor cells (NPCs) were differentiated from human embryonic stem cells HUES 64 (Harvard University) (see FIG. 2C). In short, 70% confluent stem cell cultures grown in Matrigel (Thermo Fisher) coated plates with mTESR medium (STEMCELL Technologies), were switched to N2B27 medium (50% DMEM: F12, 50% Neurobasal, supplemented with NEAA, Glutamax, N2 and B27; Gibco) containing dual SMAD inhibitors (SB431542, DNSK International and LDN-193189, Tocris) for 12 days to induce the generation of neural progenitors. Neuralization was enhanced by supplementing medium with laminin from day 5 to 12. Next, neural rosettes were dissociated with neural rosette selection reagent (STEMCELL Technologies) to obtain NPCs, which are expanded in N2B27 (Gibco) medium supplemented with bFGF (Millipore). For experimentation in the different PA platforms, NPCs were dissociated with Accutase (Innovative Cell technology), and cultured in the distinct platforms with DMEM: F12+N2+B27 medium with hyclone penicillin-streptomycin (GE Healthcare) and ascorbic acid (0.2 μg/mL; Sigma-Aldrich).
as §1, §2
For the hNPCs proliferation assay, 2 μM of the thymidine analog 5-ethynyl-2′-deoxyuridine (EdU, Thermo Fisher) was incorporated into the culture medium for 24 h. Cells were fixed at the indicated time points in 4% paraformaldehyde (PFA) for 15 min at RT. After fixation, samples were washed in PBS twice and then stained with Click-iT™ EdU Cell Proliferation Kit containing 11 mM CuSO4 (from 50 mM stock) and 1 μg/mL of Alexa Fluor-555 azide (from 0.5 mg/mL, Thermo Fisher) for 30 minutes at RT in the dark. The staining cocktail was then removed, and cells were washed with PBS. Then, hNPCs were counterstained with anti-rabbit SOX-2 antibody following the immunofluorescence protocol described below and 4′, 6-diamidino-2-phenylindole (DAPI, Thermo Fisher) at 5 μg/mL in PBS for 20 min at RT. The cells were then washed with PBS and mounted with Immu-Mount (Fisher Scientific) for imaging.
For immunofluorescence, fixed primary cultures or free-floating tissue sections (40 m Thick) were incubated in blocking buffer containing 0.02% Triton-X (Sigma-Aldrich), 1% NHS (Gibco) and PBS 1× (Gibco). Samples were incubated with primary antibodies over night at 4° C. Alexa-488, Alexa-555 and/or Alexa-647 (1:500, Thermofisher) were used as secondary antibodies. DAPI (1:500, Thermofisher) was used to stain nuclei. […]

[1] = system: human umbilical vein vascular endothelial cells (HUVECs); experiment: HUVEC branching / capillary network formation; assay type: cell-based; conditions: within 48 h of culture
Method: as §4
Treatments were prepared by dissolving the co-assembled PAs in media without serum. The total concentration of FGF2 PAs per treatment was 0.5 μM. FGF-2 native protein (Peprotech) was resuspended and used at 0.25 nM. For western blot experiments, HUVEC were cultured in 12 well plates at a density of approximately 150,000 cells/well for 2 days in vitro before being treated. Treatments were added for 2 h-2 days in vitro before cell lysates were harvested or cells were fixed. […]
To assess in vitro tubulogenesis and in vivo angiogenesis, an ImageJ (Fiji) script was established to automatically calculate 1) area fraction of blood vessels, 2) blood vessels length, and 3) number of branches. Images were processed, binarized and analyzed. Newly generated blood vessels in vivo were identified by quantifying the amount of CD31/BrdU double-positive cells within the region of interest. […] The quantified cross sections were chosen as the first serial cross sections within the lesion that had DiI staining.

T1 sequence (P11362 22-822): as above

native FGF-2: FGF-2 native protein (Peprotech), positive control
P-FGFR-1 expression (FGFR1 and ITGB1): highly expressed | levels of p-FGFR1 and downstream p-ERK1/2 (FGFR1): high levels | percentage of proliferating EdU+ and SOX2+ cells (hNPCs): increased | branching and vessel-like capillary network formation [1]: extensive branching and formation of vessel-like capillary networks

Source: patent US20240325548A1, “DYNAMIC BIOACTIVE SCAFFOLDS AND THERAPEUTIC USES THEREOF AFTER CNS INJURY” (Northwestern University, priority 2021, published 2024)
